{"source": "paper PMC5312616", "about": "“A Cholecystokinin B Receptor-Specific DNA Aptamer for Targeting Pancreatic Ductal Adenocarcinoma”", "molecules": {"B1": {"name": "AP1153 (66 nt) (ssDNA)", "DNA": "CATGGTGCAGGTGTGGCTGGGATTCATTTGCCGGTGCTGGTGCGTCCGCGGCCGCTAATCCTGTTC"}, "B2": {"name": "AP1153 truncated (49 nt) (ssDNA)", "DNA": "CATGGTGCAGGTGTGGCTGGGATTCATTTGCCGGTGCTGGTGCGTCCGC"}}, "key": {"CCKBR (Homo sapiens)": {"target": "CCKBR (Homo sapiens) (UniProt P32239)", "sequence (P32239 whole entry)": "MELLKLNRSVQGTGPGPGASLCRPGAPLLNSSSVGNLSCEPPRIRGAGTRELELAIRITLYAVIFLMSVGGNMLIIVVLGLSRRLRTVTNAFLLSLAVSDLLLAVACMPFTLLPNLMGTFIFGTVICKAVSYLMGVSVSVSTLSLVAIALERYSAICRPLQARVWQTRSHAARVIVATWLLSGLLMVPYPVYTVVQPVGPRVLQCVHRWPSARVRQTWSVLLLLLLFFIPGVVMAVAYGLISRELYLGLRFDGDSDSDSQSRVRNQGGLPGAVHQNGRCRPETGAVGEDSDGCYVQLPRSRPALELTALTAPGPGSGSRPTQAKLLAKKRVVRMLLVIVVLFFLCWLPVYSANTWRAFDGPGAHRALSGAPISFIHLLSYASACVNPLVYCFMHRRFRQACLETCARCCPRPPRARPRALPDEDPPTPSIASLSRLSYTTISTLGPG", "conditions": "cited from earlier work"}, "[1]": {"target": "T1, CCKBR N-terminal peptide BR5-21 (human, UniProt P32239 5-21)", "T1 chain": "KLNRSVQGTGPGPGASL", "test": "not stated in material; Kd assay buffer and method not given in material; SELEX peptide-bead incubation 60 min at 37 C"}}, "note": "Like-named read-outs stand apart in the source and are kept apart here."}
{"molecule": "gastrin (from UniProt P01350)", "values": [{"measurement": "Kd", "setting": "CCKBR (Homo sapiens)", "result": 1000, "unit": "pM"}]}
{"molecule": "B1", "values": [{"measurement": "Kd", "setting": "[1]; Mfold-predicted folded structure", "result": 15.5, "unit": "pM"}]}
{"molecule": "B2", "values": [{"measurement": "Kd", "setting": "[1]", "result": 206, "unit": "pM"}]}
